Results taken from patent EP4549938A1.

Target: No. 1 APOA2-like protein (vasculitis-associated apolipoprotein A2, VAP2) (human)
Experiment: Western blot band score with VasSF, COVID-19 patient sera at hospital admission (Fig. 4)

signal score: 4 /2 µL serum
B1: VasSF, single chain variable region fragment (ScFv) (scFv, V domains shown)
VH: QVHLVESGGGLVQPGRSLRLSCAVSGFTFASYAMHWVRQAPGKGLEWVAGISKDGSNKRHADSLEGRFTISRDNSKNTLYLQVSGLRAEDTAVYYCARSQDPTDFDWLLSEHWGQGTLVTVSS
